Measurements: PMC6803030 (Inorganic chemistry, 2019)
Numbering of substitutions follows the chain as printed. In names and notes the source's numbering stands. Where two headings read alike, the source gives them in different places. Each block holds one binder with its values, some of them ahead of it.

Legend:
Assay in all cases: SEC
[1] = molecular target: T1, mS100A9 (murine S100A9 subunit of calprotectin) (murine, UniProt P31725 1-113)
T1 sequence (looked up): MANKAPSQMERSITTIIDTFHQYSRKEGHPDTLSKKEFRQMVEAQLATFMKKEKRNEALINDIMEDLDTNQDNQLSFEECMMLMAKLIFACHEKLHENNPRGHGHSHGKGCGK

mS100A9(H103A) = molecular target: T2, mS100A9(H103A) (murine, UniProt P31725 2-113, H103A)
T2 sequence (looked up): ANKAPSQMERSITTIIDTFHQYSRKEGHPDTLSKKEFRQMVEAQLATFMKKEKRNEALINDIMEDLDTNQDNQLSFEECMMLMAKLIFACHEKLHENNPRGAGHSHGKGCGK

mS100A9(H103A)(H105A) = molecular target: T3, mS100A9(H103A)(H105A) (murine, UniProt P31725 2-113, H103A | H105A)
T3 sequence (looked up): T2 sequence (looked up) with H104A

mS100A9(H103A)(H107A) = molecular target: T4, mS100A9(H103A)(H107A) (murine, UniProt P31725 2-113, H103A | H107A)
T4 sequence (looked up): T2 sequence (looked up) with H106A

mS100A9(H105A)(H107A) = molecular target: T5, mS100A9(H105A)(H107A) (murine, UniProt P31725 2-113, H105A | H107A)
T5 sequence (looked up): T2 sequence (looked up) with A102H, H104A, H106A

mS100A9(H105A) = molecular target: T6, mS100A9(H105A) (murine, UniProt P31725 2-113, H105A)
T6 sequence (looked up): T2 sequence (looked up) with A102H, H104A

mS100A9(H107A) = molecular target: T7, mS100A9(H107A) (murine, UniProt P31725 2-113, H107A)
T7 sequence (looked up): T2 sequence (looked up) with A102H, H106A

SEC [2] = molecular target: the molecule itself
SEC [3] = molecular target: the molecule itself; remark: listed apart in the source

binding result [1]: binds
binding result (mS100A9(H103A)): binds
binding result (mS100A9(H103A)(H105A)): binds
binding result (mS100A9(H103A)(H107A)): binds
binding result (mS100A9(H105A)(H107A)): binds
binding result (mS100A9(H105A)): binds
binding result (mS100A9(H107A)): binds
B1: mS100A8 (murine S100A8 subunit of calprotectin) (natural protein, UniProt P27005 1-89, looked up)
chain: MPSELEKALSNLIDVYHNYSNIQGNHHALYKNDFKKMVTTECPQFVQNINIENLFRELDINSDNAINFEEFLAMVIKVGVASHKDSHKE

B2: mCP(H107A), mS100A8/mS100A9(H107A) (complex, murine)
chain 1: B1 chain
chain 2: T2 sequence (looked up) with A102H, H106A
binding result (SEC [2]): binds

B3: mCP(H105A)(H107A), mS100A8/mS100A9(H105A)(H107A) (complex, murine)
chain 1: B1 chain
chain 2: T2 sequence (looked up) with A102H, H104A, H106A
binding result (SEC [2]): binds

B4: murine calprotectin (mS100A8/mS100A9 heterodimer) (complex)
chain 1: B1 chain
chain 2: T1 sequence (looked up)
binding result (SEC [3]): binds

B5: mCP(H103A), mS100A8/mS100A9(H103A) (complex, murine)
chain 1: B1 chain
chain 2: T2 sequence (looked up)
binding result (SEC [2]): binds

B6: mCP(H103A)(H105A), mS100A8/mS100A9(H103A)(H105A) (complex, murine)
chain 1: B1 chain
chain 2: T2 sequence (looked up) with H104A
binding result (SEC [2]): binds

B7: mCP ∆His3Asp variant, mS100A8(H83A)(H87A)/mS100A9(H21A)(D31A) (complex, murine)
chain 1: B1 chain with H83A, H87A
chain 2: T2 sequence (looked up) with H20A, D30A, A102H
binding result (SEC [2]): binds

B8: mCP(H105A), mS100A8/mS100A9(H105A) (complex, murine)
chain 1: B1 chain
chain 2: T2 sequence (looked up) with A102H, H104A
binding result (SEC [2]): binds

B9: mCP(H103A)(H107A), mS100A8/mS100A9(H103A)(H107A) (complex, murine)
chain 1: B1 chain
chain 2: T2 sequence (looked up) with H106A
binding result (SEC [2]): binds
